Patent US20080233137A1 (published 2008)

Columns and labels:
[1] = molecular target: T1, WT-CHIPS (CHIPS 1-121), CHemotaxis Inhibitory Protein from Staphylococcus aureus (Staphylococcus aureus (strain Newman), UniProt A6QIG7 29-149); test: flow cytometry, 3 ug/ml CHIPS-FITC on HEK-293 cells expressing FLAG-tagged C5aR (pcDNA3.1)
T1 construct: mature

[2] = molecular target: T1, WT-CHIPS (CHIPS 1-121), CHemotaxis …; test: flow cytometry, 3 ug/ml CHIPS-FITC on HEK-293 cells displaying the C5aR N-terminus (pDISPLAY)

B1: FLAG-tagged complete human C5aR expressed on HEK293 cells (pcDNA3.1) (receptor)
chain: MDYKDDDDKNSFNYTTPDYGHYDDKDTLDLNTPVDKTSNTLRVPDILALVIFAVVFLVGVLGNALVVWVTAFEAKRTINAIWFLNLAVADFLSCLALPILFTSIVQHHHWPFGGAACSILPSLILLNMYASILLLATISADRFLLVFKPIWCQNFRGAGLAWIACAVAWGLALLLTIPSFLYRVVREEYFPPKVLCGVDYSHDKRRERAVAIVRLVLGFLWPLLTLTICYTFILLRTWSRRATRSTKTLKVVVAVVASFFIFWLPYQVTGIMMSFLEPSSPTFLLLNKLDSLCVSFAYINCCINPIIYVVAGQGFQGRLRKSLPSLLRNVLTEESVVRESKSFTRSTVDTMAQKTQAV
notes: also called whole C5aR; complete C5aR
[1]
  binding result: binds

B2: C5aR N-terminus (first 38 amino acids of the human C5aR) displayed on HEK293 cells with the pDISPLAY vector (receptor)
chain: MNSFNYTTPDYGHYDDKDTLDLNTPVDKTSNTLRVPDI
notes: domain: transmembrane domain; also called C5aR N-terminal protein; pDISPLAY C5aR N-terminal protein
[2]
  binding result: binds
